For 1 molecule, Kd results are on record in publication PMC11404819, “Peptide nucleic acids can form hairpins and bind RNA-binding proteins”.

The series has as its target T1, Avi-FtsYNG (UniProt P10121 196-497).
T1 sequence: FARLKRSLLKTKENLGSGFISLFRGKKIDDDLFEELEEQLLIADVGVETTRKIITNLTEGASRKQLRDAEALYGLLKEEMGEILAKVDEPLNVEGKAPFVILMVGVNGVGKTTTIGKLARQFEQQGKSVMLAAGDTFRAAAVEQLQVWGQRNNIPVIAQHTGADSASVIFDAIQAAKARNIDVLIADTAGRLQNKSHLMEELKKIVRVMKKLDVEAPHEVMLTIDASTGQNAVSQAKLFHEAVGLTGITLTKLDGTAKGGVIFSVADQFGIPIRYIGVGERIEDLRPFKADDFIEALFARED
In words: SPR; 10 C; RNA over immobilised protein; curve incomplete, fit fixed with GDP control; figure legend swaps panels with PNAtet; SPR: 20 mM HEPES pH 7.5, 150 mM NaCl, 3 mM MgCl2, 1 mM TCEP, 1% glycerol, 0.005% Tween, 10 C; MST: 50 mM HEPES pH 7.5, 100 mM NaCl, 1.5 mM MgCl2, 10% glycerol. The settings on record: protein: recombinant; tags: Avi tag, biotinylated, immobilised on streptavidin; hairpin, 5 bp stem.

Turning to GCGCCGGAAGGCGC (structured_RNA, first and last two phosphodiester bonds replaced by phosphorothioate) [moRNAtet], the Kd is 160 ± 20 µM.
